Laboratory results taken from paper PMC4622058.

Molecular target: Human FcγRIIIa V158 (human)
Test: AlphaScreen or HTRF

fold difference in binding against IgG1 | fold decrease in binding against IgG1 | Substance
< 2 fold |  | anti-CD142 mAb variant 2h-AEA (IgG1 with IgG2 lower hinge, K326A/I332E/E333A) (antibody)
< 2 fold |  | anti-CD142 mAb variant 2h-DAA (IgG1 with IgG2 lower hinge, S239D/K326A/E333A) (antibody)
 | > 30 fold | anti-CD142 mAb with human IgG2 constant region (antibody)
